{"source": "paper PMC6133388", "molecular_target": "GST-tagged NbSAMS2 (GST-NbSAMS2) (N. benthamiana)"}
{"substance": "GST-C4 (natural protein)", "values": [{"measurement": "NbSAMS2 enzymatic activity in vitro (conversion of 35S-Met to 35S-SAM, TLC) after pre-incubation with varying amounts of GST-C4; reduction of activity at an 8:1 molar ratio of C4:NbSAMS2", "value": 80, "unit": "%"}]}
